Experiment: soluble on expression in E. coli; label from the status in PepcDB or PDB records

Row | Sequence | soluble on expression in E. coli
1 | MSLTQRIDFQTDPSRYRHWRVAYDGEIANLYMDVDEQGGLFPGYELKLNSYDLGVDIELADIVQRMRFEHPEVKVVVMQSGKDRVFCAGANIRMLGGASHAHKVNFCKFTNETRNTYEAAEADSGQKYIAAVKGACAGGGYELALACNYIMLTNDSSSSVALPEVPLLAVLPGTGGLTRVTDKRKVRRDLADVFCSVEEGVRGQRAVDWRLVDEIAPNSKFDEVVQERAREFASASVKPSGLTGIALTPLDRRFAEDGSVTYSTVEVVVEREAGRATLTISGPTDAAPDTVDALQAQGAEAWILRAARELDDAILHLRLNERRIGTLVIQTQGDGAAVAAHEALLLENRDHWLANEILQHWKRVLKRVDMTSRSLVAIVEHGSCFAGPLAELLWAVDRSYMMLEEFEGDNRPLAAITLSPGNFGTYPMGNDLSRLATRFLGTPEAVEAARARIGEALEAEEAEKLGLVTYVLDDIDWEDEVRVFLEERASFSPDAMTGMEANLRFAGPETMETRIFGRLTAWQNWIFQRPNAVGPDGALQRYGTGVRGDYDMERVEGHHHHHH | soluble
2 | MDNKLGLNKMNKTLIALAVSAAAVATGAYADGINQSGDKAGSTVYSAKGTSLEVGGRAEARLSLKDGKAQDNSRVRLNFLGKAEINDSLYGVGFYEGEFTTNDQGKNASNNSLDNRYTYAGIGGTYGEVTYGKNDGALGVITDFTDIMSYHGNTAAEKIAVADRVDNMLAYKGQFGDLGVKASYRFADRNAVDAMGNVVTETNAAKYSDNGEDGYSLSAIYTFGDTGFNVGAGYADQDDQNEYMLAASYRMENLYFAGLFTDGELAKDVDYTGYELAAGYKLGQAAFTATYNNAETAKETSADNFAIDATYYFKPNFRSYISYQFNLLDSDKVGKVASEDELAIGLRYDF | not soluble
3 | MPIRHCIVHLIEKKPDGTPAVLHARDSELAESQAIENMLADLNESYNAKQGKAWGLFHPESGAHPFSGWLKEYLDGGKDFTAFSRVSVEHLQKLMEESNLSVGGHVLFAHYQQGMTDYLAIALLHHSDGVAVNAELDVTPSRHLDLGQLHLAARINISEWQNNKQSKQYISFIKGKNGKKVSEYFRDFIGCQEGVDGPGETRTLLKAFSDFVESEDLPEESAREKTKTLIDYASSQSKMGEPMGLEALSELIDENQPRAFYDHIRNKDYGLSPEIPADKRTLNQFRRFTGRAEGLSISFEAHLLGDKIEYDETAGTLIIKGLPTQLTDQLKRRLEHHHHHH | not soluble
4 | GPGSMLRRQLHLSAIGGVSAAAAAVLDGIGPSSAAAATGTLSSSSTSLSVMASVSPLLMPCRGVKLVNPIGKQGSQHYGLEPKLEAGRDTQLKHTEMYDGYTDDFGVFKEGPPVTLRLEYVRSPDHGYSQHILQKDIWSPFQVGANMMSYTPLYYDWKGFSSRDYFGHRSGTNPGSKVLLGHYRRDEVRSWGYRIMVNHKPQKRIPKWLACVVHIPRKKTFLGFFLYANGAYVAELLTYKQLPRIIYNKAFQGCLPTIGQTVSLTEVTYGKEIHSVEMYPGHGGVICRASGTAAVVLRGSEPNLVPLLLPSKEVRLFDNMCHAVFGRRAGVMYNKQRNFSKRSVEENMPHRPKVHSKTKRVSSHPAGGGNGGSPNLLTPLDWRIHPRNCVKTKYWLSGYILRGRQYNRNQTVADLKSKTYSWANRDPVYR | not soluble
5 | MAHHHHHHMYNFFASVNAPSTPPQKQPQVEPSLPPSACHHHVAASSLLDGMTAHNASLWLLNASQQRSLSYAHSGGGGDNLAGAEQEKRTAASQFYSTFPTAAAPPPSSGVQSLHGVGQQPAQQPHKHLCTSILQSYEHVGNSATPAPGLSSSLPLQEHQSSTWVTLRGGSLRMQLDGVPYSPFASTNASAASQPPDAAHGNEQYYDSTSHHRGYSASSASSIRHTLQVPASPQQQHQQQRLPISSSVWTAATPATAMPASLFASSSIRPLTNTTYPGYSCDWSGNALPTLPAAVPAPYVSGAALPVSSRSQTTYSVMPQPPQSGQPCSPTAHPATHSIMILHPTLDRGTAAILQASADAVNTPLHCLTDVKASEISGTTHYLEVVQGGGSVGDNSKHSYPSSIPIASRQPQPPLQQYYLQPTPQQHQQGQQLAAEQPPVHSCFLTNDGNMSHFVNHTTAAGAIIQPPSSMLSDIASLASLSSRTAGAGRSGAWQQPSTADMGSYKDQSSKLQLQQQQQQQQQQRRPVSAARQVTYTRGIPRRNRDRAVLFVGQLNYEATEADVSQVFSCYGKPLSVVVLKDKGKATKKGGAGGITGGSAATHRKVGGSAFVTYGTTLEADTAIMALHGRYNAKGDDVENVDNSKYLQVSYGQQTGLISAFGMMHAEKLHASKPENPIPLLVKDRTNGKL | not soluble

Source: the DeepSol protein solubility set
